Assay results reported in patent publication US20050239704, “Compositions and methods for affecting virulence determinants in bacteria” (published 2005).

Target: SarR (Staphylococcus aureus, UniProt Q2FEJ8 SEQ:1-115)
Test: footprint; protected region nt 81-108 within the 109-bp fragment
Details: tags: untagged, pET11b expressed in E. coli BL21(DE3)pLysS; chain copies: 2 (inferred)

SarR, sequence (Q2FEJ8 whole entry, the tested form may be a part): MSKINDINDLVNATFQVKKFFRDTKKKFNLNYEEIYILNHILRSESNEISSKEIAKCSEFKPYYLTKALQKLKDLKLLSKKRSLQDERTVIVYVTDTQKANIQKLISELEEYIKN

B1: sarA P2 protected region (nt 81-108) (dsDNA)
DNA 1: TAAATTAATGTTATTTTTTAATAATTTA
DNA 2: TAAATTATTAAAAAATAACATTAATTTA
- binding result: binds
